The values below come from US20110136676, “GEOMETRIC PATTERNS AND LIPID BILAYERS FOR DNA MOLECULE ORGANIZATION AND USES THEREOF” (published 2011).

One data set deals with EcoRI E111Q E111Q. Conditions: CITED F17; cited from earlier work.
Another data set deals with LacI (UniProt P03023). Conditions: CITED F24; cited from earlier work.
The subject of data set [1] is RNA polymerase holoenzyme (Escherichia coli). Conditions: CITED; cited from earlier work.
The subject of a further data set is EcoRI. Conditions: CITED F17; cited from earlier work.
A further data set addresses Mlh1-Pms1 (Saccharomyces cerevisiae, UniProt P38920;P14242 P38920:1-769,P14242:1-873). The data set is described as follows: EMSA; 25 mM Hepes pH 7.6, 50 mM NaCl, RT; QD/antibody labelling did not disrupt binding. Conditions: tags: FLAG inserted after T448 or Y499 of Mlh1 and/or HA after D565 of Pms1, anti-tag quantum dots; chain copies: heterodimer (stated); label: 5'-32P. (In general: A gel shift assay detects complexes by their altered migration in electrophoresis.)

Some results are limits rather than exact numbers.

Mlh1-Pms1, sequence (P38920 whole entry, chain 1 of 2): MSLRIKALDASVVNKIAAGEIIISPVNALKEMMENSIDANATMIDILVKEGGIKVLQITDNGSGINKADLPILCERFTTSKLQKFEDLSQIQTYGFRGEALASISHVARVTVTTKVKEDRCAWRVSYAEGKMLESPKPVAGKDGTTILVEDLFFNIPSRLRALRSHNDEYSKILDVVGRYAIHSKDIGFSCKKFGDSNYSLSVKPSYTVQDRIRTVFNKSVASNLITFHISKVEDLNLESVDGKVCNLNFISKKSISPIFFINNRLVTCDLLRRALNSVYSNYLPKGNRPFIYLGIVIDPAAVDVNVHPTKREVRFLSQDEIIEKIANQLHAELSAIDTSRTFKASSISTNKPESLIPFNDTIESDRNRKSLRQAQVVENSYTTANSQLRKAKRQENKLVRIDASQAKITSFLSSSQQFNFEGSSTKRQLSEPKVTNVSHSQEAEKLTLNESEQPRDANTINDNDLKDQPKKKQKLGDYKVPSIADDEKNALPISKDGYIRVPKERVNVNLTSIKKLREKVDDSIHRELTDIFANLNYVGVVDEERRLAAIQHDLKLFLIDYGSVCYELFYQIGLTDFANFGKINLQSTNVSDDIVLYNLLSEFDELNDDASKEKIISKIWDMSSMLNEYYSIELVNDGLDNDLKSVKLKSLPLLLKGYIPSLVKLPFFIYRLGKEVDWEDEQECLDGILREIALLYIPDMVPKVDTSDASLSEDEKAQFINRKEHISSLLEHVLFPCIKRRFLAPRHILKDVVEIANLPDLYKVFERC
Mlh1-Pms1, sequence (P14242 whole entry, chain 2 of 2): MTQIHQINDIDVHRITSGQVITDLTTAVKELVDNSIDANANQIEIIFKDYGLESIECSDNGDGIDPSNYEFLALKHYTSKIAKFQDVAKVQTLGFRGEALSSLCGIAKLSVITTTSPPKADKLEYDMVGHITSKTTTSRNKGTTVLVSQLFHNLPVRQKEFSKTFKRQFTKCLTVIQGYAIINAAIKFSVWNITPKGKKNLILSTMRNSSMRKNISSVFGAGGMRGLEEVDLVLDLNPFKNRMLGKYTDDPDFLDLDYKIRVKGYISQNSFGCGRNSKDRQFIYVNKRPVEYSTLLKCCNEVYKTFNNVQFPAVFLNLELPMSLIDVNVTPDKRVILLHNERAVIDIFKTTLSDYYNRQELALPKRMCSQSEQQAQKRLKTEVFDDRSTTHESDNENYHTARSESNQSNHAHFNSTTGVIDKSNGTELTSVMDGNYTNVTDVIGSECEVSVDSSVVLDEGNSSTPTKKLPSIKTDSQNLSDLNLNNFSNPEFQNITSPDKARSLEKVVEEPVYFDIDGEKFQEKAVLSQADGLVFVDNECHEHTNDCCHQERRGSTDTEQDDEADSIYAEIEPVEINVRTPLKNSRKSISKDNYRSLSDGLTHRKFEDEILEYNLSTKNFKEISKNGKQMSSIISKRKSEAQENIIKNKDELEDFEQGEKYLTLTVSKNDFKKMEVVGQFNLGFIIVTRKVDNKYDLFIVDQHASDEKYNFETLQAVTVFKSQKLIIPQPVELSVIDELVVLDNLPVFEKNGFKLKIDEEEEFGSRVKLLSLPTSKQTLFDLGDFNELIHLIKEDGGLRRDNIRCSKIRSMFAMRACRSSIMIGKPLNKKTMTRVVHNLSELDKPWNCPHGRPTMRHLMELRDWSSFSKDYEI
LacI, sequence (P03023 whole entry): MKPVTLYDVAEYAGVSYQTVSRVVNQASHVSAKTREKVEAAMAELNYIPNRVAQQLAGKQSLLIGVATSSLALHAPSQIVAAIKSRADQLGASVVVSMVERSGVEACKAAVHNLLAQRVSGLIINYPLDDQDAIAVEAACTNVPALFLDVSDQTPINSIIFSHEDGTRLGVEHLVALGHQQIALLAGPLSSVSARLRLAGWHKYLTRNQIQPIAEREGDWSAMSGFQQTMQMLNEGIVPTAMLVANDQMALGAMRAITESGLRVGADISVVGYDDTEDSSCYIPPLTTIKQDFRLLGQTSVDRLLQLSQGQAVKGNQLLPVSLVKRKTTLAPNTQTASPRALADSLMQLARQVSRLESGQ
Protocol for Mlh1-Pms1: Ensemble characterization of Mlh-Pms1 DNA-binding activity. […] Samples were loaded on 4% (w/v) non-denaturing polyacrylamide gels containing 0.5×TBE and electrophoresed at 130 V for 1 hour at RT. Gels were dried on 3mM Whatman paper and visualized by Phosphorlmaging. Analysis was done using ImageJ.

As for nonspecific DNA, the Kd in the data set on EcoRI E111Q E111Q is 4.8 pM; with LacI, greater than 1000 pM. Regarding lambda PL promoter, in data set [1], the Kd is 100 pM. For the molecule lambda PR promoter, in data set [1], the Kd is 10 pM. With EcoRI cognate site DNA, the Kd in the data set with EcoRI E111Q E111Q was 0.0025 pM; in the data set with EcoRI, 6.7 pM.

B1: 40 bp S1/S2 duplex (dsDNA)
DNA 1: ACCGAATTCTGACTTGCTAGGACATCTTTGCCCACGTTGA
DNA 2: TCAACGTGGGCAAAGATGTCCTAGCAAGTCAGAATTCGGT
For B1, in the data set with Mlh1-Pms1, the binding result is given as “binds”.

A word on the Kd: it is the free concentration of one partner at which half of the binding sites on the other are occupied at equilibrium, for simple one-to-one binding.
